Source: the DeepSol protein solubility set

test: soluble on expression in E. coli; label from the status in PepcDB or PDB records

For “MIGVVGGGIAGLSAAYRLQQRGHEVRVFEASEDLGGLAATYETAGDPIEKFYHHLSKSEETIVDLAEELGLGDAVEWHIGENAYYVDGVVHPMDKPWEILSYPHLSLYDTFRLGMLVLDIDVRGGVPSFDTYERLEDFEGVPIEEFVVDHTTRGVYENFFEPLLDAKFGDRKDDVSAAWLLGRVKFRGERDILNGEILGYFDGGFGRLLDALVDAVGRDNIATGTRVSDIDTSGGTVSSLTATDGTETTVHDVDSVVVATMPNVLEALTGYTCDIDFQGTVCSVISMDEPLLDTYWLNIADDAPFGALIEHTNFVSAERYGGEHLLYVARYIQDESEAIWQQSDDEVAETWLQGIESLFPDFDRDAVNWIRTGRNPRTAPVYERGYLDMVIPYDLSDAVADGLYYAGMASRAQYPERSLNGGIVAGFECADRIARDPSAATKTDESPLSEAQRLEHHHHHH”, which “soluble on expression in E. coli” value is on record?
The value was “not soluble”.

With “MMRITGKHCLRVAILSIQRSGMIHPRNTNGSKAKNVMVADGCVIEGTVENSILSRGVKIGKNAKVKNCILLQDTVIEDGANLEYVITDKNVRVSRNRSLTGNDSFQVYVAKGQTV” as the sequence, how does the “soluble on expression in E. coli” value read?
Its value is “not soluble”.

For “MSLRILIVDDEKLTRDGLIANINWKALSFDQIDQADDGINAIQIALKHPPNVLLTDVRMPRMDGIELVDNILKLYPDCSVIFMSGYSDKEYLKAAIKFRAIRYVEKPIDPSEIMDALKQSIQTVLQHQAQQDSEGHHHHHH”, which “soluble on expression in E. coli” value is on record?
Its value is “soluble”.

For “GMYEEWKIVKREAPILGNDQLIENIWKMKREDSPYDIISLHKVNLIGGGNDAVLILPGTWSSGEQLVTISWNGVHYTIPDYRKSIVLYLARNGFNVYTIDYRTHYVPPFLKDRQLSFTANWGWSTWISDIKEVVSFIKRDSGQERIYLAGESFGGIAALNYSSLYWKNDIKGLILLDGGPTKHGIRPKFYTPEVNSIEEMEAKGIYVIPSRGGPNNPIWSYALANPDMPSPDPKYKSISDFLMDSLYVTGSANPYDYPYSKKEDMFPILASFDPYWPYRLSLERDLKFDYEGILVPTIAFVSERFGIQIFDSKILPSNSEIILLKGYGHLDVYTGENSEKDVNSVVLKWLSQQR”, which “soluble on expression in E. coli” value is on record?
The value was “soluble”.

With “MGIKGLSQVIADNAPSAIKVNEMKAFFGRTVAIDASMCLYQFLIAVRQDGSQLQSEDGETTSHLMGMLNRTVRMFENGVKPVYVFDGKPPDMKGGELEKRSERRAEAEKALTEAKEKGDVKEAEKFERRLVKVTKQQNDEAKRLLGLMGIPVVEAPCEAEAQCAHLVKAGKVFGTVTEDMDALTFGSTVLLRHFLAPVAKKIPIKEFNLSLALEEMKLSVEEFIDLCILLGCDYCGTIRGVGPKKAVELIRQHKNIETILENIDQNKYPPPEDWPYKRARELFLNPEVTKPEEVELTWKEADVEGVIQFLCGEKNFNEERIRNALAKLKTSRKSGTQGRIDSFFGNSTKVTCVTAATKRKAEEAEKAKKGAKKGGPPKKRAK” as the sequence, how does the “soluble on expression in E. coli” value read?
Its value is “not soluble”.

For “MSLNLSRIGLDLAKQVFQVHGVDRHEHVVCRRQLKRAQVRDFFRQLPPCLVAMEACGSAHYWARELRELGHTVRLIAPQFVKPYVKGDKHDAHDAEAICEAASRPSMRYVPVKSAEQQAVQSMHRVRSRLVRARTALCNEVRGLLGEFGLIATRRGRAATMALLETVMATEPAPLPAPMGELLRELKDELQTLEARIARLERQIQAHVRGDARIQRLLAVEGIGPISASAVAASAGDARQFRTGRQFAAWLGLVPRQHSTGGQQRLGNISKRGDTYLRTLLIHGARAVVRCCANKTDARSRWLQGLLQRRPANVVAVALANKNARILWALLSRETCYRPGEGHHHHHH”, which “soluble on expression in E. coli” value is on record?
Its value is “not soluble”.

With “MTAGGERVTERGTGSDPVDLFIIGGGINGCGIARDAAGRGLSVTLAEMGDLAQATSSASTKLFHGGLRYLEYFEFRLVREALEERETLLVAMPHISWPMRFVLPWQPEMRFAGDTPTARLLGRLMPWARGRRPAWLIRLALETYDRLGGRKILPPARSVDLTRDPAGRALQPRFTKGWEYSDCWVEDSRLVVLNARDAEIRGATILTRTKVVGAERRGDLWHVTTEGARGRQVHRARALVNAGGPWVARIIRETLALPTTEGVRLVRGSHIVTKRLFDHDRCYFFQGTDGRIIFAIPYETDFTLIGTTDQDHRGAPDEARCTPEEQDYLCTFASDYFRKPVTREDIVWTYSGVRPLHDDGARSATAATRDYVLSLDSRGAPLLNVFGGKITTYRRLAESAMAKLAGHFPQARGAWTARVPLPGGDFPWDGAPALAEGLRRDYPFLTERWAMRLVRAYGTDARNLLGPARSALDLGRDFGATLTEAEVRWLMDREYAERAEDVVWRRSKLGLRLTPEEIAALDGWMKDAGGAMEARADTGLEHHHHHH” as the sequence, how does the “soluble on expression in E. coli” value read?
The value was “soluble”.

With “MGSDKIHHHHHHMSQMHQQLINEYTRTRLNEEAVSIERIYFYKTDKRVNPKQEEPFWHAAGDIPILVSAPHAVRHFRQKKIKMSDEYTGSIVYLLNKLTGCHAIAVTKLYGGDPNVDSPCIYKEKLAQLCRQGKIKLLLDIHGAARDRDFDVDFGTNNRRNLLEKMHTDEILAQNFRNCGFSKISSDYFAASSPNTIANFAARELGIPAVQIEINKHYRVPAQNPQGFHRLMAALVESINSVGRRYQEGWKDINRERKIR” as the sequence, how does the “soluble on expression in E. coli” value read?
The value was “not soluble”.

Which “soluble on expression in E. coli” value does the source give for “MGSDKIHHHHHHMREENYEEAAKAFNAAIEANPSDPIGFVNFGNLLGMVGELDKALIFFDKAIGLQEDCAPAYYGAGTIYYKQEKFEDGAKMFKQAIAHKLNETDVYFMLGMCYYQLGALPHAQANFQRALELDSNDVEARFQLGLCLAQLEQVDEAIKHLQLVVEHVPNHADAHFNLGVAYAYKDRLEEALAHFERAIHIQPEHILAHNGKKTVEEVLNKGANEA” here?
The value was “not soluble”.

Which “soluble on expression in E. coli” value does the source give for “MDIKVVKGSITEVDADVIVNPANSRGLMGGGVAVVIKRLGGEEIEREAVEKAPIPVGSAVLTTAGKLKFKGVIHAPTMEEPAMPSSEEKVRKATRAALELADKECFKIVAIPGMGTGVGGVPKEVAARAMVEEIRKFEPKCLEKVILVDIDEEMVEAWEKVLGLRLEHHHHHH” here?
Its value is “soluble”.

With “GPLGSMATVPVYCVCRLPYDVTRFMIECDACKDWFHGSCVGVEEEEAPDIDIYHCPNCEKTHGKSTLKKKRTWHK” as the sequence, how does the “soluble on expression in E. coli” value read?
The value was “soluble”.

With “QGALYLVPTPIGNLEDMTFRAIRMLKEADIIAAEDTRNTVKLLNHFEITTRMTSYHQFTKENKEDNIIQRMLDGEVVALVSDAGMPSISDPGYELVQNALNANIPVIPLPGA” as the sequence, how does the “soluble on expression in E. coli” value read?
The value was “not soluble”.

Which “soluble on expression in E. coli” value does the source give for “MGSDKIHHHHHHMDHRQTFLSRYDTAACKAAHEIISCYSTSFGLATKLLRGRIRTDISNLYAMVRIADEIVDGTAQMAGLEPNAVSQLLDDYEAAVLAAPTQRFHADPILHAWALSARRCKFKTEHVQAFFTSMRNDLHKHNYEAAEFNEYVYGSAEVIGLMCLDAFLVEQHPRPHERTMMEHGARSLGSAFQKINFLRDLEEDTHVLGRNYFPQLTGELTDATKALLVADIRTDLAAAYRCIPLLPFDARVGVQAAADLFTALTDRIQEASAVEVTHTRIRIPKAQKIAIITRAPWRALHG” here?
Its value is “not soluble”.

For “MAHHHHHHSLTTVGLELINVSSSWDEGIVELFEKIKRENKANGQLTGDDGLFFTNLYVTPVLKNINLRLEEGMMLAVAGSTGSGKSSLLMMILGELVPSEGKIRHSGRISYSPQTSWIMPGTIRDNILFGLTYDEFRYTSIIRACQLEEDLDLLPEKDKTAIAEGGVTLSGGQRARICLARAVYKDADLYLLDAPFTHLDIATEKEIFDKCVCKLIASKTRVVVTSKLEHLKRADRILLLHNGDCYFYGTFSELQAQRPDFSSLLLGLGSYDNISAERRSSILTETLRRVSVDETAGFRGEG”, which “soluble on expression in E. coli” value is on record?
The value was “soluble”.

For “SLSIYSFSQITRSLFLSNGVAANDKLLLSSNRITAIVNASVEVVNVFFEGIQYIKVPVTDARDSRLYDFFDPIADLIHTIDMRQGRTLLHCMAGVSRSASLCLAYLMKYHSMSLLDAHTWTKSRRPIIRPNNGFWEQLINYEFKLFNN”, which “soluble on expression in E. coli” value is on record?
Its value is “not soluble”.

For “ENSVFFGKKKKVSLHLLVDPDMKDEIIKYAQEKDFDNVSQAGREILKKGLEQIA”, which “soluble on expression in E. coli” value is on record?
The value was “soluble”.

For “MTTGNLQVAIYGFTARSRAFEPAGICYETRLIRDKLTLGHCTLPIYKNSPVAKPVTEQQRKKSSEEPAELRKDLFDADNEKYEKYLMKLDPNDCKNQDHYKVLGLSKLRWQATSDEIRFCYRQKVLKHHPDKKKHRGIVMEKEEYFTCITKAYEQVGMSDVKRQAFDSVDHKFNDIIPNEKSINHNNFYNELAPVFQLNSRWSNIKPVPELGKSDATREDVENFYDFWFNFQSWREFSYLDEEDKERGEDRYERREMEKQNKAERERRRKEEAKRIRKLVDIAYAKDPRIIKFKKEQQAKKDKAKEDKQRAIREKQEAIDREKREKEEAEAKQKEEADRKAKEEREREKKERDIAKKAMSQQRKRLKKLADEAGHWTENPRDKLTEMERIERICIGFTVDQLRELCEKVESLSIASEIQTALTDAEILKKEAAGAKVTITEDKNKENEKQADKETWTSEEIQLLVKASNTFPPGTVERWVQIADYINEHRKDSTGLPPKTEKQVIKQCKAVQTMNVKLPSTTQNQLGTALPDEDVWSATEQKTLEDAIKKHKSSDPERWEKISTEVGTKSKKACIRRFKYLVQMVKNKK”, which “soluble on expression in E. coli” value is on record?
Its value is “not soluble”.

With “MTSMATPHVAGIAALLLQAHPSWTPDKVKTALIETADIVKPDEIADIAYGAGRVNAYKAINYDNYAKLVFTGYVANKGSQTHQFVISGASFVTATLYWDNANSDLDLYLYDPNGNQVDYSYTAYYGFEKVGYYNPTDGTWTIKVVSYSGSANYQVDVVSDGSLSQPGSSPSPQPEPTVDAKTFQGLEHHHHHH” as the sequence, how does the “soluble on expression in E. coli” value read?
The value was “soluble”.

For “MEGLINALKYLAEHEPIDNFEEIRTRNSPIELPSGLSNFEQNIFLKENLSPKLQNDDSLKTHYWIIREWGGIKSFKQSAENSQLIRQFLSELNSGKLSSGLLKISSLSKLASFIDCERFAIYDSRAIFSLNWLLFKFTNADLFFQPQGRNRELEIRNMNVLFHFSDIKPNYRKPDVSFHQYCGLLQDLAKQVYGKQAKPYHIEMLLFKIATTWICADMDQLIKFDCLRNQDFQTA”, which “soluble on expression in E. coli” value is on record?
Its value is “not soluble”.

With “GMELDDAYANGAYIEGAADYPPRWAASAEDFRNSLQDRARLNLSYGEGDRHKFDLFLPEGTPVGLFVFVHGGYWMAFDKSSWSHLAVGALSKGWAVAMPSYELCPEVRISEITQQISQAVTAAAKEIDGPIVLAGHSAGGHLVARMLDPEVLPEAVGARIRNVVPISPLSDLRPLLRTSMNEKFKMDADAAIAESPVEMQNRYDAKVTVWVGGAERPAFLDQAIWLVEAWDADHVIAFEKHHFNVIEPLADPESDLVAVITA” as the sequence, how does the “soluble on expression in E. coli” value read?
The value was “soluble”.

For “MSLVSSLSFNFAPDFRPLAARMRPRTIAEYIGQAHLLGEGQPLRQALEAGRAHSMMLWGPPGTGKTTLAELIAHYSNAHVERISAVTSGVKDIRGAIEQAQAIAQSRGQRTLLFVDEVHRFNKSQQDAFLPFIEDGTVIFIGATTENPSFEINNALLSRARVYLIKRLSQDEIVHIITQALADTERGLGQRALNMPTDVLNKLAQLCDGDARKALNLLELMSDMVADGGTFTTEMLVQVAGHQVAGFDKNGDQFYDLISAVHKSIRGSAPDAALYWFCRILEGGGDPLYVARRLLAIASEDVGNADPAAMTIALNAWECFHRVGPAEGERAIAQAIVYLASAPKSNAVYTAFKAARALARETGQEAVPYHLRNAPTKLMAEMGFGAEYRYAHDEPNAYASGENYFPESLKESQFYFPTERGFEKRIKDKLVQLAQLDQASGRKREGHHHHHH”, which “soluble on expression in E. coli” value is on record?
The value was “soluble”.
